{
  "source": "paper PMC4484435",
  "about": "“Leucine-rich α-2-glycoprotein promotes TGFβ1-mediated growth suppression in the Lewis lung carcinoma cell lines” (Oncotarget, 2015)",
  "binders": {"B1": {"name": "Leucine-rich α2-glycoprotein (natural protein)", "chain": "LKECLILQSAEGSTVSCHGPTEFPSSLPADTVHLSVEFSNLTQLPAAALQGCPGLRELHLSSNRLQALSPELLAPVPRLRALDLTRNALRSLPPGLFSTSANLSTLVLRENQLREVSAQWLQGLDALGHLDLAENQLSSLPSGLLASLGALHTLDLGYNLLESLPEGLLRGPRRLQRLHLEGNRLQRLEDSLLAPQPFLRVLFLNDNQLVGVATGSFQGLQHLDMLDLSNNSLSSTPPGLWAFLGRPTRDMQDGFDISHNPWICDKNLADLCRWLVANRNKMFSQNDTRCAGPEAMKGQRLLDVAELGSL"}},
  "molecular_target": "T1, transforming growth factor beta 1 (UniProt P01137 279-390)",
  "T1 construct": "Transforming growth factor beta 1 (TGFβ1), the mature growth factor cut from its precursor; The source of the TGFβ1 is told only for the cell assays (PeproTech); also called TGFβ1; TGFβ; source: bought: PeproTech (cell assays)",
  "T1 sequence (P01137 279-390)": "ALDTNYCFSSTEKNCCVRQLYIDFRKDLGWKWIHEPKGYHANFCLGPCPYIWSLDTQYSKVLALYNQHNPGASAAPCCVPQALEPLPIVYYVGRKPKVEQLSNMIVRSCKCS",
  "assay": "SPR; BIAcore 3000; which partner was immobilised and the conditions are not given",
  "settings": "both partners purified",
  "data": [
    {"binder": "B1", "values": [
      {"measurement": "Kd", "result": 2.32, "unit": "µM"}
    ]}
  ]
}
